Experimental data taken from US20120165267A1.

Assays:
[1] = molecular target: DR4-selective phage clone 8 (human) (UniProt P50591); test: competition phage ELISA: phage clone Apo.DR4-8 at a fixed concentration on wells coated with DR4-IgG, competed by rising soluble DR4-IgG (axis in nM), bound phage detected with anti-M13 antibody-HRP, A450; IC50 from a 4-parameter fit, first value in the IC50 box beside the legend
[2] = molecular target: DR4-selective phage clone 11 (human) (UniProt P50591); test: competition phage ELISA: phage clone Apo.DR4-11 at a fixed concentration on wells coated with DR4-IgG, competed by rising soluble DR4-IgG (axis in nM), bound phage detected with anti-M13 antibody-HRP, A450; IC50 from a 4-parameter fit, third value in the IC50 box beside the legend
[3] = molecular target: DR4-selective phage clone 9 (human) (UniProt P50591); test: competition phage ELISA: phage clone Apo.DR4-9 at a fixed concentration on wells coated with DR4-IgG, competed by rising soluble DR4-IgG (axis in nM), bound phage detected with anti-M13 antibody-HRP, A450; IC50 from a 4-parameter fit, second value in the IC50 box beside the legend
[4] = molecular target: DR4-selective phage clone 13 (human) (UniProt P50591); test: competition phage ELISA: phage clone Apo.DR4-13 at a fixed concentration on wells coated with DR4-IgG, competed by rising soluble DR4-IgG (axis in nM), bound phage detected with anti-M13 antibody-HRP, A450; IC50 from a 4-parameter fit, fourth value in the IC50 box beside the legend
[5] = molecular target: wild-type (native sequence) Apo2L/TRAIL(96-281) displayed on phage (human) (UniProt P50591); test: competition phage ELISA: wild-type Apo2L/TRAIL phage (ApoWT) at a fixed concentration on wells coated with DR4-IgG, competed by rising soluble DR4-IgG (axis in nM), bound phage detected with anti-M13 antibody-HRP, A450; IC50 from a 4-parameter fit, fifth value in the IC50 box beside the legend

DR4-IgG, sequence (O00220 24-241 H141R/R209T limits assumed): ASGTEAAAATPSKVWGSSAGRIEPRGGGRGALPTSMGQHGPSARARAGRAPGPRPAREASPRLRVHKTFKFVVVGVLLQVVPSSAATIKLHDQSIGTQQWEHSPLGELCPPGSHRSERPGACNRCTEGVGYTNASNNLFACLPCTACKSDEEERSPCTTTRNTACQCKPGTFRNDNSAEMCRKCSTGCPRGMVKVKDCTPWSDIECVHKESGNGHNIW

## DR4-IgG (from UniProt O00220 24-241) (Fc fusion)
[1]
  IC50: 1.3 nM
[2]
  IC50: 4.2 nM
[3]
  IC50: 1.1 nM
[4]
  IC50: 6.7 nM
[5]
  IC50: 2.8 nM
